Reference: CN110526967A (UNIV NORTHWEST A&F, dated 2019)

Experiments:
金黄色葡萄球菌肠毒素B = target: T1, 金黄色葡萄球菌肠毒素B (Staphylococcus aureus, UniProt P01552 28-266); assay: direct ELISA, antigen coated, HRP-conjugated nanobody
T1 sequence: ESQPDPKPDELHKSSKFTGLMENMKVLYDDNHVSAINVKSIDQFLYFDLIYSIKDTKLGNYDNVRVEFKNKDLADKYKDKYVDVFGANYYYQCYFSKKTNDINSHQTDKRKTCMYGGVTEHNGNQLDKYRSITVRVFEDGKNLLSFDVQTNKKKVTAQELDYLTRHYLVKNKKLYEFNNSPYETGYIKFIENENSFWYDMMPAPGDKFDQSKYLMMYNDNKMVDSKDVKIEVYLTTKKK

金黄色葡萄球菌肠毒素A = target: T2, 金黄色葡萄球菌肠毒素A (Staphylococcus aureus, UniProt P0A0L2 25-257); assay: phage ELISA on coated SEA
T2 sequence: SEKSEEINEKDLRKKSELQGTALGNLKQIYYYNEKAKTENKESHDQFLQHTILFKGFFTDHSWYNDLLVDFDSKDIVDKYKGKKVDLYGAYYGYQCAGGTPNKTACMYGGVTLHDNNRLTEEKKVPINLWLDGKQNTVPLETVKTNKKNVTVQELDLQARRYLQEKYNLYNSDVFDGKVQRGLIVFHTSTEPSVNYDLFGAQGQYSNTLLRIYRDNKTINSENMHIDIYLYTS

B1: 金黄色葡萄球菌肠毒素A纳米抗体A13 (VHH)
VHH: ESGGGSVQAGGSLRLSCAASGDAYMCKCMGWFRQGPGKEREKVAAIYITDGSTYYADSVKGRFTLSQDNAKNTVYLQMNSLKPEDTAMYYCAASTFYGCETGLHGYNYWGQGTQVTVS
B1: no binding (tested: 500ng/mL (coating)) (金黄色葡萄球菌肠毒素B); binds (金黄色葡萄球菌肠毒素A).
